Results taken from patent EP4775595A1.

Experiments:
[1] = biological target: hIGF-1R-ECD-avi-his (human IGF-1R extracellular region) (human) (UniProt P08069); assay: SPR (Biacore T200), antigen captured by anti-His antibody on CM5 chip, antibody as analyte
[2] = biological target: human IGF-1R on human non-small cell lung cancer cells (A549) (human) (UniProt P08069); assay: cell-based or functional assay
Chain of human IGF-1R on human non-small cell lung cancer cells (A549) (human) (P08069 31-1367): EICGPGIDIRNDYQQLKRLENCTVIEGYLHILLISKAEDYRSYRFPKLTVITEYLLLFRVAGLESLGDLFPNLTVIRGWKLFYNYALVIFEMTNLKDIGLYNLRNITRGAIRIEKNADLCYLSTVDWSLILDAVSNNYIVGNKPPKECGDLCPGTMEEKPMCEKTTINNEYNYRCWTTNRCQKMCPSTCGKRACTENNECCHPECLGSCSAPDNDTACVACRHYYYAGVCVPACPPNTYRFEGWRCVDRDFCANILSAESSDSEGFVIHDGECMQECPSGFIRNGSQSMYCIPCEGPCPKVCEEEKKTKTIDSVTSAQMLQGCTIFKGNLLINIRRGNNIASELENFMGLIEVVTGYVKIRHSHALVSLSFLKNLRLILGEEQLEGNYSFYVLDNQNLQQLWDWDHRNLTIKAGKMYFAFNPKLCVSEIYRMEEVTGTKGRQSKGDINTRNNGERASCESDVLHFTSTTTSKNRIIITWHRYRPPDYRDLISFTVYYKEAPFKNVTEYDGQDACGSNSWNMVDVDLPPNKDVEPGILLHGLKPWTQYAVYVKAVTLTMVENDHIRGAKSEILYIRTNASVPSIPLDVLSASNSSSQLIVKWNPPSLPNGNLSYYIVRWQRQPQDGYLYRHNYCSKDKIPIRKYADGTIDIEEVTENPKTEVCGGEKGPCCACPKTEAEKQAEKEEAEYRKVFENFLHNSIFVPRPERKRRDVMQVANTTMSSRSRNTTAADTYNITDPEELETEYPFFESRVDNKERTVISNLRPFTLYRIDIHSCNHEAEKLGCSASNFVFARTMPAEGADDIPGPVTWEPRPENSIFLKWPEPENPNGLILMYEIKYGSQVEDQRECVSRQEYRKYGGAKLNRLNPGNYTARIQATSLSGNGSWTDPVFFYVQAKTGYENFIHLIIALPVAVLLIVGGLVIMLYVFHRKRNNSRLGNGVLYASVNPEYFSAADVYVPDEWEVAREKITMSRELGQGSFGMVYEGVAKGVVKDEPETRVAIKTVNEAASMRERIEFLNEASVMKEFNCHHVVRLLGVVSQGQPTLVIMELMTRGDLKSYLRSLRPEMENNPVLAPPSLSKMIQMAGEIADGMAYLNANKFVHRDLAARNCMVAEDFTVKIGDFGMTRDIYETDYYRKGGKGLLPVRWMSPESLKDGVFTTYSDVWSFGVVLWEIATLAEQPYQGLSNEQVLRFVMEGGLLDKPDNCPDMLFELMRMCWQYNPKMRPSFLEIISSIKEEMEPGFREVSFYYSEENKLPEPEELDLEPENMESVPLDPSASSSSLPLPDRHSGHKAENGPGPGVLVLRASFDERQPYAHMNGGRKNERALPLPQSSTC

Chain of hIGF-1R-ECD-avi-his (human IGF-1R extracellular region) (human) (P08069 other isoform, or with tags, fused parts or gaps limits assumed): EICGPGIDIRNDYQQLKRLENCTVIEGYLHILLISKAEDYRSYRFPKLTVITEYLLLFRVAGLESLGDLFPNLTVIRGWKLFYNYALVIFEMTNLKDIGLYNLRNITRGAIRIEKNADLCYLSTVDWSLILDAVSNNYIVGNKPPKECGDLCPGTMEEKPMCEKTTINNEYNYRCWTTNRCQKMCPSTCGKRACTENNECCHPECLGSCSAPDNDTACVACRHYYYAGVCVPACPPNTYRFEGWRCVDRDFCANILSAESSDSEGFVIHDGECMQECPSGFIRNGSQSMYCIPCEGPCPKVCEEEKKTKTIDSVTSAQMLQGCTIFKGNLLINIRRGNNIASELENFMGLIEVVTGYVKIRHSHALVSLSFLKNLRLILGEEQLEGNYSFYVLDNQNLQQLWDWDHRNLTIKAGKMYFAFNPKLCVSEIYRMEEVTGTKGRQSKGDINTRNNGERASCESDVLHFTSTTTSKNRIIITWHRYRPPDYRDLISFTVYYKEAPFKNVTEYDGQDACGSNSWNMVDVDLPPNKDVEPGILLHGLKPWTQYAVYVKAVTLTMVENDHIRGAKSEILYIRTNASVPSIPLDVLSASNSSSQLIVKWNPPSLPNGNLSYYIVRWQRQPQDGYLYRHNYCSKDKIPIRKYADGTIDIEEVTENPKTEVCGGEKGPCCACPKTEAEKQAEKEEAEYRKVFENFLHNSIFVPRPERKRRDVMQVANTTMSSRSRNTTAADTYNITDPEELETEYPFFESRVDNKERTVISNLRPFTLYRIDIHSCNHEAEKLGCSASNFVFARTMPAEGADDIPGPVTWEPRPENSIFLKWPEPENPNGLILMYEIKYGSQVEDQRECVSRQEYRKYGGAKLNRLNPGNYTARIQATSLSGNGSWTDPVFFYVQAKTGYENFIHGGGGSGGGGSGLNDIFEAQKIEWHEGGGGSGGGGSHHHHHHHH

Substance: Tepezza (Horizon, US2022356257) (antibody)
- Kd [1]: 0.267 nM
- koff [1]: 0.00109 s⁻¹
- kon [1]: 4.08e+06 M⁻¹ s⁻¹

Substance: VRDN-001 (Viridian, WO2023019171) (antibody)
- Kd [1]: 0.0175 nM
- koff [1]: 1.47e-05 s⁻¹
- kon [1]: 839000 M⁻¹ s⁻¹
- IC50 (nM), inhibition of IGF1-induced pAKT signaling in A549 cells [2]: 0.716 nM
